15 molecules from patent US20150210756A1 (NEW YORK UNIVERSITY, published 2015) can be followed below.

This assay has as its target T1, LukE (S. aureus, UniProt Q2FXB0 24-306).
T1 construct: also called leukotoxin E
The experiment in a line: ELISA after cis-display panning.

B1: Luk27 (designed binder)
chain: LPAPKNLVVSRVTEDSARLSWTAPDAAFDSFPIVYQEWQFYGEAIVLTVPGSERSYDLTGLKPGTEYLVDIYGVKGGSWSYPLSAIFTT
notes: also called anti-LukE FN3 domain Luk27; not shown: C-terminal poly-histidine tag
Regarding B1, the binding result is “binds”.

B2: Luk29 (designed binder)
chain: LPAPKNLVVSRVTEDSARLSWDEQFVSNFDSFLIQYQESEKVGEAIVLTVPGSERSYDLTGLKPGTEYTVSIYGVFVPWDGFSEINYSNPLSAIFTT
notes: not shown: C-terminal poly-histidine tag
For the molecule B2, the binding result is recorded as “binds”.

B3: Luk30 (designed binder)
chain: LPAPKNLVVSRVTEDSARLSWAFNWNYFAFDSFLIQYQESEKVGEAIVLTVPGSERSYDLTGLKPGTEYTVSIYGVVALNTGNKKSNPLSAIFTT
notes: as for B2
On to B3, for which the binding result is given as “binds”.

B4: Luk32 (designed binder)
chain: LPAPKNLVVSRVTEDSARLSWYHENAYLLFDSFLIQYQESEKVGEAIVLTVPGSERSYDLTGLKPGTEYTVSIYGVVYDLTPEKRSSNPLSAIFTT
notes: as for B2
Consider B4, for which the binding result was “binds”.

B5: Luk37 (designed binder)
chain: LPAPKNLVVSRVTEDSARLSWTAPDAAFDSFLIQYQESEKVGEAIVLTVPGSERSYDLTGLKPGTEYTVSIYGVVGWPLFIQSNPLSAIFTT
notes: as for B2
With B5, the binding result is “binds”.

B6: Luk26 (designed binder)
chain: LPAPKNLVVSRVTEDSARLSWTAPDAAFDSFHIEYAEPWVWGEAIVLTVPGSERSYDLTGLKPGTEYVVFIGGVKGGHNSTPLSAIFTT
notes: also called anti-LukE FN3 domain Luk26; not shown: C-terminal poly-histidine tag
In the case of B6, the binding result is on record as “binds”.

B7: Luk31 (designed binder)
chain: LPAPNNLVVSRVTEDSARLSWDWDKYYTNRFDSFLIQYQESEKVGEAIVLTVPGSERSYDLTGLKPGTEYTVSIYGVLVRDYIRAAEWYSNPLSAIFTT
notes: as for B2
For the molecule B7, the binding result is “binds”.

B8: Luk60 (designed binder)
chain: LPAPKNLVVSRVTEDSARLSWTAPDAAFDSFDIQYWEWWPFGEAIVLTVPGSERSYDLTGLKPGTEYGVIILGVKGGFRSTPLSAIFTT
notes: as for B2
Consider B8, for which the binding result is given as “binds”.

B9: Luk28 (designed binder)
chain: LPAPKNLVVSRVTEDSARLSWTAPDAAFDSFAIQYWEWWPPGEAIVLTVPGSERSYDLTGLKPGTEYGVIILGVKGGWYSNPLSAIFTT
notes: as for B2
On to B9, for which the binding result is “binds”.

B10: Luk48 (designed binder)
chain: LPAPKNLVVSRVTEDSARLSWTAPDAAFDSFHIEYGEWWPTGEAIVLTVPGSERSYDLTGLKPGTEYGVLIVGVKGGFRSSPLSAIFTT
notes: as for B2
On to B10, for which the binding result was “binds”.

B11: Luk50 (designed binder)
chain: LPAPKNLVVSRVTEDSARLSWTAPDAAFDSFVIPYSEWWPVGEAIVLTVPGSERSYDLTGLKPGTEYGVYIVGVKGGTWSAPLSAIFTT
notes: as for B2
As for B11, the binding result is listed as “binds”.

B12: Luk33 (designed binder)
chain: LPAPKNLVVSRVTEDSARLSWTAPDAAFDSFLIQYQESEKVGEAIVLTVPGSERSYDLTGLKPGTEYTVSIYGVAFIPDEIEFSNPLSAIFTT
notes: as for B2
Consider B12, for which the binding result is reported as “binds”.

B13: Luk35 (designed binder)
chain: LPAPKNLVVSRVTEDSARLSWTAPDAAFDSFLIQYQESEKVGEAIVLTVPGSERSYDLTGLKPGTEYTVSIYGVAHIPWEFEWSKPLSAIFTT
notes: as for B2
As to B13, the binding result is recorded as “binds”.

B14: Luk36 (designed binder)
chain: LPAPKNLVVSRVTEDSARLSWTAPDAAFDSFLIQYQESEKVGEAIVLTVPGSERSYDLTGLKPGTEYTVSIYGVADVPDEYEFSNPLSAIFTT
notes: as for B2
In the case of B14, the binding result was “binds”.

B15: Luk34 (designed binder)
chain: LPAPKNLVVSRVTEDSARLSWTAPDAAFDSFLIQYQESEKVGEAIVLTVPGSERSYDLTGPKPGTEYTVSIYGVVVVPHEFEFSNPLSAIFTT
notes: as for B2
Regarding B15, the binding result is “binds”.
